Experiment in all cases: FP
Experiment [1] has as its target P101L PNKP (human) (human, UniProt Q96T60-1 1-521, P101L).
The target in experiment [2] is Polynucleotide Kinase-Phosphatase (PNKP), human, wild-type (human, UniProt Q96T60-1 1-521).
In experiment [3] the target is wild-type murine PNKP (murine, UniProt Q9JLV6 1-522).

Square brackets hold non-standard residues; d marks the D form. Ends that are not written are not given here. pT = C[C@@H](OP(=O)(O)O)[C@H](N)C(=O)O

Chain of wild-type murine PNKP (Q9JLV6 whole entry): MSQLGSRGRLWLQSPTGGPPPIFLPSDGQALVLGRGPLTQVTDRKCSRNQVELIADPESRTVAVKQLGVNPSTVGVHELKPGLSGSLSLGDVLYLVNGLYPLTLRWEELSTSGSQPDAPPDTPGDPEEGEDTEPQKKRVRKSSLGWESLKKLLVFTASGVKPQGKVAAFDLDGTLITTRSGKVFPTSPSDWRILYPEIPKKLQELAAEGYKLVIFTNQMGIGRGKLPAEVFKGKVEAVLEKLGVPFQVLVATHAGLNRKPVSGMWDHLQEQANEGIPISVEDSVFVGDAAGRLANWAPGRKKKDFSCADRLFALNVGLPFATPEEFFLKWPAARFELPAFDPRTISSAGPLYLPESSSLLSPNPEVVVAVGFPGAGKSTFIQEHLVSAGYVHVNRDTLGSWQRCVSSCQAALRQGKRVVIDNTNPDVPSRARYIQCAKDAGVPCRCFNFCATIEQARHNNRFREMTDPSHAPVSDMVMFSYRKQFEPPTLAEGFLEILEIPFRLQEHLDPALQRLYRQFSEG

For orientation: Kd means the constant that tells how readily two partners part at equilibrium. On to GGYDES[pT]DEESKK (also: fluorescent dye label, position not given here) [fluorescent-dye labeled XRCC4-based phosphopeptide (GGYDES-pT-DEESKK)], for which the Kd is greater than 21000 nM in experiment [1], 1080 nM in experiment [2] and 760 nM in experiment [3].

Values taken from publication PMC8967877 (2022).
